# According to paper PMC3613824 (Cell Death & Disease, 2013):
# B1: GST-MVaf1 (myosin-Va medial tail fragment 1, MYO5A 1276-1328 [+B], fused to glutathione-S-transferase) (domain or fragment)
# chain: QKEAIQPKDDKNTMTDSTILLEDVQKMKDKGEIAQAYIGLKETNRSSALDYHE
# Molecular target: MBP-DLC2 (dynein light chain-2 fused to maltose-binding protein) (UniProt Q96FJ2 1-89)
# Experiment: pull-down
binder,measurement,value
B1,binding result,binds
